For this test, the target named is Polyhydroxyalkanoate synthase PhaC from Aquitalea sp. USM4 (JCM 19919) (Aquitalea sp. USM4 (JCM 19919)). The experiment in a line: SEC. In general terms: In gel filtration, larger molecules generally elute earlier.

Usually stoichiometry N stands for a count of units in the complex or per binding partner. Regarding “Polyhydroxyalkanoate synthase PhaC from Aquitalea sp. USM4 (JCM 19919) (enzyme)”, the stoichiometry N is 2.

These data come from publication doi:10.1101/235556.
